Tested on: MS2 coat protein
Experiment: apparent KD of MS2 coat protein; designed switch direction (-1 OFF switch, 1 ON switch): 1; higher = weaker reporter binding
Method in brief: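 The reported apparent KD is a per-design median over clusters, from curve fits of normalised cluster fluorescence. Protein titrations used SNAP-549-labelled MS2 coat protein, doubled from 0.7 or 1.5 nM to 3 µM, in Tris-HCl pH 7.5 buffer with KCl, MgCl2, BSA, DTT, tRNA and Tween-20, with no input, 200 uM small-molecule ligand, or an oligonucleotide input. The RNA switches were transcribed on Illumina chips by stalled E. coli RNA polymerase.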

[1] = input ligand: microRNA oligo, concentration not stated
[2] = Eterna round: R95, input ligand: FMN 200 uM
[3] = Eterna round: R95, input ligand: microRNA oligo, concentration not stated
[4] = Eterna round: R95, input ligand: none

Sequence | apparent KD of MS2 coat protein (input ligand: FMN 200 uM) [nM] | apparent KD of MS2 coat protein [1] [nM] | apparent KD of MS2 coat protein (input ligand: none) [nM] | apparent KD of MS2 coat protein [2] [nM] | apparent KD of MS2 coat protein [3] [nM] | apparent KD of MS2 coat protein [4] [nM]
UAUUAAGCUGUAGGAUAUCUAGGAUAUGGACGAGGAUCACCCGAGCAGCAUCAGCGCACCAGAGGAGAGAAGGACGCUUUGGUG [pwkr ssNG2 2F5 2FMN.23] (Eterna round: R96, puzzle: Same State NG 2) | 961 | 348 | 2730 | – | – | –
UAUUUAAUCAUAGGAUAUAGAGUGAAAUUUGGACUAGAAGGAUGUAACAUGAGGAUCACCCAUGUGGUAAGUGGGACACAGUGU [JR_SSNG1_Sub094] (Eterna round: R96, puzzle: Same State NG 1) | 206 | 85.5 | 129 | – | – | –
UAUUUAAUCAUAGGAUAUAGUGUGAAAUUUGGACUAGAAGGAUGUAACAUGAGGAUCACCCAUGUGGUAAGUGGGACACAGUGA [JR_SSNG1_Sub096] (Eterna round: R96, puzzle: Same State NG 1) | – | 114 | – | – | – | –
UCAACUUCUUUUAGUGUGUUGCCAGUUUUACAUGAGGAUCACCCAUGUUAAGUAUUGUGGUAUUUUGUUCGUCUUAA [JR_SHM208A_Sub073] (puzzle: Sensor for hsa-mir-208a) | – | – | – | 15.6 | 14.3 | 16.3
UCAAGCGAGAGGCUCGUCUUAUGCAAGGAACAUGAGGAUCACCCAUGUGAGGGACGAUUGAGUUAGAUGGAAUGGAG [JR_SHM208A_Sub032] (puzzle: Sensor for hsa-mir-208a) | – | – | – | 29.9 | 136 | 33.5
UCAAGGUUUUUGCUCGUUUUAUGUGUUGAACAUGAGGAUCACCCAUGUAUUGUACGAUCCAGUUAGAUGGUGGUUUG [JR_SHM208A_Sub042] (puzzle: Sensor for hsa-mir-208a) | – | – | – | 87.4 | 78.1 | 132
UCAUGGUUUUUGCUCGUUUUAUGUGUUGAACAUGAGGAUCACCCAUGUAUUGUACGAUCCAGUUAGAUGGUGGUUUG [JR_SHM208A_Sub043] (puzzle: Sensor for hsa-mir-208a) | – | – | – | 235 | 85.8 | 469
UCCGCUAUCUAGAAGGAUAUGCGUAAAUAAACAUGAGGAUCACCCAUGUACCGGCGAAAGCCGGUGCAGAAGGUUUAGCUAGUGA [Xeisgexe] (puzzle: Same State 2) | – | – | – | 38.2 | 574 | 390
UCGGGCGUACUUGCUGACAUGAGGAUCACCCAUGUCCUUGGACAGGAUAUGGUUCCGUUUCGGUUCCAGAAGGUCCUGGCUGCU [salish99_SSNG3_r04_320] (Eterna round: R96, puzzle: Same State NG 3) | 31.8 | 25.5 | 40.9 | – | – | –
UCUUGGUUUUUGCUCGUUUUUUGUGUUGAACAUGAGGAUCACCCAUGUAUUGUACGGUCCAGUUUGAUAGUGGUCCG [JMF 33] (puzzle: Sensor for hsa-mir-208a) | – | – | – | 25.6 | 13.6 | 29.9
UCUUGGUUUUUGCUCGUUUUUUGUGUUGAACAUGAGGAUCACCCAUGUAUUGUACGGUCCGAUUUAGUAGUGGUCCG [JMF 18] (puzzle: Sensor for hsa-mir-208a) | – | – | – | 26 | 14.5 | 26.9
UCUUGGUUUUUGCUCGUUUUUUGUGUUGAACAUGAGGAUCACCCAUGUAUUGUACGGUCCGGUUUAGUGAUGAUCCA [JMF 76] (puzzle: Sensor for hsa-mir-208a) | – | – | – | 188 | 196 | 287
UGAACCUUCACAGGAUAUCAUGCGAAAAUUGCGUGAGAAGGGUGAAUAUGGUGUUCAUAGUUGCACAUGAGGAUCACCCAUGUA [SameState NG1 #53] (Eterna round: R96, puzzle: Same State NG 1) | – | 92.3 | – | – | – | –
UGAAUAGUCACAGGAUAUCAUGCGAAAAUUGCGUGAGAAGGGUGGAUGUUGUGCUCAAAGUUCUACAUGAGGAUCACCCAUGUU [SameState NG1 #43] (Eterna round: R96, puzzle: Same State NG 1) | 61.2 | 64 | 63.3 | – | – | –
UGAAUAUUCACAGGAUAUGAGUUGUAAAGUGGAUCAGAAGGGUGGGUGUUUUGCACGGUGUGUUACAUGAGGAUCACCCAUGUU [SameState NG1 #24] (Eterna round: R96, puzzle: Same State NG 1) | 205 | 232 | 627 | – | – | –
UGCAUACAUGAGGAUCACCCAUGUCUACGAUGUCGAGGAUAUGGAUUGCCGUGAGGCGUGCCAGAAGGCGAAGUGG [Same State 1 - Mod of Vinnie Teenbexe v.2] (puzzle: Same State 1) | – | – | – | 26.2 | 33.7 | 30.1

Sequence | apparent KD of MS2 coat protein (input ligand: FMN 200 uM) [nM] | apparent KD of MS2 coat protein [1] [nM] | apparent KD of MS2 coat protein (input ligand: none) [nM] | apparent KD of MS2 coat protein [2] [nM] | apparent KD of MS2 coat protein [3] [nM] | apparent KD of MS2 coat protein [4] [nM]
UGCCUGAGUCGAGGAUAUUAUGGAUCAAUUAAUACAUGAGGAUCACCCAUGUAAUUAAUUUAACAUGAGAAGGCGACUCAGGCA [SSNG2/10-A2] (Eterna round: R96, puzzle: Same State NG 2) | 7.88 | 4.69 | 8.81 | – | – | –
UGGAGAAAUCAAGGAUAUGCUACCGUUUCGGUAGCAGAAGGUGAUCACAUGAGGAUCACCCAUGUAUGCAUGCGUGAGCGUGCU [JL SSNG1 3.54] (Eterna round: R96, puzzle: Same State NG 1) | – | 12.6 | – | – | – | –
UGGAUCUAGGCUUGCCUGGGUCCAUGCUGACAUGAGGAUCACCCAUGUGCAUCCUACAAGCUUUUUGCUUGUCUGUC (Eterna round: R96, puzzle: Sensor for hsa-mir-208a) | 384 | 607 | 530 | – | – | –
UGGAUCUAGGCUUGCCUGGGUCCAUGCUGACAUGAGGAUCACCCAUGUGCAUCCUACAAGCUUUUUGCUUGUCUGUC (puzzle: Sensor for hsa-mir-208a) | – | – | – | 60.7 | 69.7 | 51
UGGCUCAGACUAGGAUAUACGUGGUCACAUGAGGAUCACCCAUGUCUCGAGCUUCGGCUCGAGGCGUAGAAGGAGUCUGAGCCA [SSNG2/6-D2] (Eterna round: R96, puzzle: Same State NG 2) | 145 | 199 | 184 | – | – | –
UGGCUCAGAGCAGGAUAUAUGUAAUAACAUGAGGAUCACCCAUGUGUCGAGCUUCGGCUCGACACAUAGAAGGGCUCUGAGCCU [SSNG2/2-B3] (Eterna round: R96, puzzle: Same State NG 2) | 12 | 28.8 | 40.3 | – | – | –
UGGUACAUGGGAGGAUAUCAUGCAAACAUGAGGAUCACCCAUGUAACCAUGGAGACAUGGAUAUAUGAGAAGGCCCAUGUACCU [JL SSNG1 3.51] (Eterna round: R96, puzzle: Same State NG 2) | 11 | 19.6 | 27.9 | – | – | –
UGGUACAUGGGAGGAUAUCAUGUAGAAACAUGAGGAUCACCCAUGUAGAUGGCACGAUUCGUGAAUGAGAAGGCCCAUGUACCU [JL SSNG1 3.60] (Eterna round: R96, puzzle: Same State NG 2) | 36.8 | 38.2 | 52.8 | – | – | –
UGGUACAUGGGAGGAUAUCAUGUAGAAACAUGAGGAUCACCCAUGUAGAUGGCAGCUUUGCUGAAUGAGAAGGCCCAUGUACCU [JL SSNG1 3.58] (Eterna round: R96, puzzle: Same State NG 2) | 15.6 | 18.9 | 22.8 | – | – | –
UGGUACAUGGGAGGAUAUCAUGUAGAAACAUGAGGAUCACCCAUGUAGGUGGCCGGUAACCGGAAUGAGAAGGCCCAUGUACCU [JL SSNG1 3.62] (Eterna round: R96, puzzle: Same State NG 2) | 48.6 | 48.6 | 61.1 | – | – | –
UGGUACAUGGGAGGAUAUCAUGUAGAGACAUGAGGAUCACCCAUGUAGAUGGCCGGUAACCGGGAUGAGAAGGCCCAUGUACCU [JL SSNG1 3.65] (Eterna round: R96, puzzle: Same State NG 2) | 161 | 56.3 | 151 | – | – | –
UGGUACAUGGGAGGAUAUGGGCAAGAGACAUGAGGAUCACCCAUGUAUUAAAAGCCGAAAGGCAUCUAGAAGGCCCAUGUACCU [JL SSNG1 3.86] (Eterna round: R96, puzzle: Same State NG 2) | 13.3 | 55.9 | 86.7 | – | – | –
UGGUACAUGGGAGGAUAUGGGCAUGAGACAUGAGGAUCACCCAUGUAUUAAAAGCCGAAAGGCAUCUAGAAGGCCCAUGUACCU [JL SSNG1 3.85] (Eterna round: R96, puzzle: Same State NG 2) | 17.1 | 137 | 214 | – | – | –
UGGUACAUGGGAGGAUAUGGGUUGAUAACAUGAGGAUCACCCAUGUUAAAUAUGCCGAGAGGCAACUAGAAGGCCCAUGUACCU [JL SSNG1 3.00] (Eterna round: R96, puzzle: Same State NG 2) | 28.5 | 380 | 644 | – | – | –
UGUACAUGAGGAUCACCCAUGUCUAGACAUGUUAAUAUAAUGUAGGAUAUAUAAAAUUUAAAUUAAUAGAAGGACAAUUUUUUU [JMF's solution 2] (Eterna round: R96, puzzle: Same State NG 3) | 113 | 155 | 212 | – | – | –

— the supplement of paper PMC9170038
